The assay concerns the target H6GY-titin I28 protein. Put plainly: sedimentation equilibrium, 3 loading concentrations, ten fold molar excess of Ni2+; Ni(II)-mediated self-association (monomer-dimer).

The substance H6GY-titin I28 protein yielded a Kd of 200 µM.

(Values after patent US20100267005A1.)
